From PMC3524233, “Disulfide Bonds within the C2 Domain of RAGE Play Key Roles in Its Dimerization and Biogenesis” (PLoS ONE, 2012)

B1: canonical full-length RAGE from mouse lung (receptor, mouse (endogenous in lung), UniProt Q62151 23-402, looked up)
chain: GQNITARIGEPLVLSCKGAPKKPPQQLEWKLNTGRTEAWKVLSPQGGPWDSVARILPNGSLLLPATGIVDEGTFRCRATNRRGKEVKSNYRVRVYQIPGKPEIVDPASELTASVPNKVGTCVSEGSYPAGTLSWHLDGKLLIPDGKETLVKEETRRHPETGLFTLRSELTVIPTQGGTHPTFSCSFSLGLPRRRPLNTAPIQLRVREPGPPEGIQLLVEPEGGIVAPGGTVTLTCAISAQPPPQVHWIKDGAPLPLAPSPVLLLPEVGHEDEGTYSCVATHPSHGPQESPPVSIRVTETGDEGPAEGSVGESGLGTLALALGILGGLGVVALLVGAILWRKRQPRREERKAPESQEDEEERAELNQSEEAEMPENGAGGP
notes: mouse RAGE, the canonical full-length isoform of lung tissue; source: endogenous, crude membrane fraction of wild-type (C57BL/6) mouse lung
B2: RAGE C2 domain-only fragment (residues 235-404) (domain or fragment, UniProt Q15109 235-404, looked up)
chain: LEEVQLVVEPEGGAVAPGGTVTLTCEVPAQPSPQIHWMKDGVPLPLPPSPVLILPEIGPQDQGTYSCVATHSSHGPQESRAVSISIIEPGEEGPTAGSVGGSGLGTLALALGILGGLGTAALLIGVILWQRRQRRGEERKAPENQEEEEERAELNQSEEPEAGESSTGGP
notes: RAGE C2 domain-only fragment, residues 235-404 (C2 domain with the transmembrane helix and the cytosolic portion); also called C2 fragment; source: CHO-CD14, transfected, expressed on the cell surface, in membrane extracts

Columns and labels:
[1] = target: the molecule itself; assay: non-reducing SDS-PAGE with immunoblot; crude membrane fraction of mouse lung (homogenised with 20 mM N-ethylmaleimide), 15 µg, 4-12% gradient gel, reducing and non-reducing, IB with anti-RAGE; RAGE knockout lung as control
[2] = target: the molecule itself; assay: non-reducing SDS-PAGE with immunoblot; membrane extracts of transfected CHO-CD14 cells; DTT omitted from the loading buffer, 2% LDS, 80°C for 10 min, NuPAGE 4-12% Bis-Tris gel

| Protein | stoichiometry N [1] | stoichiometry N [2] |
| --- | --- | --- |
| B1 | 2 | – |
| B2 | – | 2 |
